In PMC3355305, “Localized Dimerization and Nucleoid Binding Drive Gradient Formation by the Bacterial Cell Division Inhibitor MipZ” (Molecular Cell, 2012):

What was measured:
[1] = biological target: ParB; parameters: method as in Thanbichler and Shapiro, 2006; details: apo-MipZ; ref Thanbichler and Shapiro, 2006; cited from earlier work
[2] = test system: MipZ or its mutant derivatives (immobilized, homotypic); test: SPR analysis of MipZ self-association / dimer dissociation; format: binding, Caulobacter crescentus
Protocol: Figure 2 Biochemical Analysis of MipZ Dimerization (A) ATPase cycle of MipZ. See the main text for details. (B and C) SPR analysis of MipZ self-association. […] After the binding phase, the chip was washed with buffer lacking protein and nucleotides to follow the dissociation reaction. The rate constants (koff) determined for the dissociation of the MipZ and MipZ-D42A complexes are 0.83 min^−1 and 0.067 min^−1, respectively. (D) Nucleotide-dependent dimerization of MipZ. MipZ-D42A was incubated with ADP (blue), ATP (orange) or ATPγS (red) and subjected to size exclusion chromatography. (E) ATPase activity of MipZ and its mutant derivatives. The graph gives the average turnover rate (kapp, average turnovers/min per molecule of MipZ) of the different MipZ derivatives (6 μM). Data represent the average of at least three independent experiments (±SD). Note that consistent with a critical role of the metal cofactor in dimerization and catalysis Mg^2+ was required for ATP turnover (Figure S2H). (F) Concentration dependence of the MipZ ATPase activity. The average turnover rate of MipZ (kapp) was determined at the indicated protein concentrations. […]

B1: MipZ: P loop ATPase and cell division inhibitor of Caulobacter crescentus; hexahistidine-tagged in vitro, YFP fusion in FRAP (protein)
chain: MAETRVIVVGNEKGGAGKSTIAVHLVTALLYGGAKVAVIDLDLRQRTSARFFENRRAWLDNKKIELPEPLALNLSDNDVALAERPEEEQVAGFEAAFARAMAECDFILIDTPGGDSAITRMAHGRADLVVTPMNDSFVDFDMLGTVDPVTLELTKPSLYSLTVWEGRKQRALSGQRQAMDWVVLRNRLATTEARNRKRLEDRLNALAKRVGFRIGPGLRDRVIYRELFPFGLTIADLSPQVRPVPVSLQHLAARQELRALMHSLGLSAYSGETMLAAQ
modifications: left off: His6, end not stated, state not stated
notes: hexahistidine-tagged in vitro, YFP fusion in FRAP
Kd [1]: ~2 µM | dissociation rate constant (koff) of the dimeric complex ([2]; in the presence of 1 mM ATPγS): 0.003 s⁻¹ | dissociation rate constant (koff) of the dimeric complex ([2]; in the presence of ATP, chip washed with buffer lacking protein and nucleotides): 0.0138 s⁻¹
